The record followed here is patent publication CN105330739A (WATERSTONE PHARMACEUTICALS WUHAN CO LTD, dated 2016).

The test addresses T1, 鼠VEGF (mouse, UniProt Q00731-2 27-190, limits assumed).
T1 construct: Coated on the ELISA plate at 0.5 ug/ml; also called mouse VEGF
T1 sequence (looked up): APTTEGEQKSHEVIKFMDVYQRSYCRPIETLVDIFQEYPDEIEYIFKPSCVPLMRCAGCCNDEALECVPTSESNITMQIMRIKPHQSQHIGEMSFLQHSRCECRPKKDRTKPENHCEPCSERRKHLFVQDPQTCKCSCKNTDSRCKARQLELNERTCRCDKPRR
The test can be described thus: ELISA, mouse VEGF coated at 0.5 ug/ml.

B1: NevegiMab抗体 (antibody, V domains shown)
VH: EVKLQESGPELKKPGETVKISCKASGYTFTNYGLNWVKQAPGKGLKWMGWINTYTGEPTYADDFKGRFAFSLETSASTAYLQINNLKNEDMATYFCAKYGITYEWYFDVWGAGTTVTVSS
VL: DIVLTQSTSSLSASLGDRVTISCRASQDISNSLNWYQQKPNGTVILLIYYTSRLHSGVPSRFSGSGSGAVYSLTISDLEQEDIATYFCQQGNTFPWTFGGGTKLEIKR
notes: Mouse monoclonal antibody purified from hybridoma supernatant; also called 单抗NevegiMab; 单克隆抗体NevegiMab
For the molecule B1, the binding result was “no binding”.
